In assay [1] the target is T1, human CDH16 protein (hCDH16-his, Novoprotein, Cat. No. CJ16) (human, UniProt O75309 19-786).
T1 construct: Bought; also called human CDH16-his
T1 sequence (looked up): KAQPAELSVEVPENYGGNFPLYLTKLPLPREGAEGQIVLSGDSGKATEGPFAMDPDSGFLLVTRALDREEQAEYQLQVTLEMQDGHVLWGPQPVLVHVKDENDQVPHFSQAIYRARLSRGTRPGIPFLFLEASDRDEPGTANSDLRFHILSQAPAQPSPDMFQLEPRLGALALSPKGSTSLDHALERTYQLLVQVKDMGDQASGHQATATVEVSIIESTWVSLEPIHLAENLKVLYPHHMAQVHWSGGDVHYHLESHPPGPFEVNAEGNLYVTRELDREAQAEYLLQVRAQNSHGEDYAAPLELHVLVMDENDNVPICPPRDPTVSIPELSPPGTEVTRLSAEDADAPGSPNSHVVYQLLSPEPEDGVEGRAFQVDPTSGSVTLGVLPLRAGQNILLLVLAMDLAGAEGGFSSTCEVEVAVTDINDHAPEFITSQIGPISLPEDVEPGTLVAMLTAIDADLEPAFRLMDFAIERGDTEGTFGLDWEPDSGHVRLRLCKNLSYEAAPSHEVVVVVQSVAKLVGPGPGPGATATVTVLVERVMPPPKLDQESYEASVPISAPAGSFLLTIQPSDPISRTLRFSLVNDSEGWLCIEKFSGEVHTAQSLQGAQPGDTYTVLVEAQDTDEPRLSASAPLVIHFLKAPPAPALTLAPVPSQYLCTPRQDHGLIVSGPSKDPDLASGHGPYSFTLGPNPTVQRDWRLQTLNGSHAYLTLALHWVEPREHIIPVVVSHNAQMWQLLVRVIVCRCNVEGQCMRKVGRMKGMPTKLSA
The assay can be described thus: ELISA, hCDH16-his coated at 1 ug/mL. Background: An ELISA detects its analyte on a solid surface through an enzyme-linked reagent.

Assay [2] concerns the target T2, hCDH17-his (full length extracellular domain of human CDH17, Q23-M787, his tag at the C-terminal) (human, UniProt Q12864 23-787).
T2 construct: Limits of the construct (UniProt Q12864, Q23-M787, C-terminal his tag); also called human CDH17-his protein; human CDH17 protein
T2 sequence: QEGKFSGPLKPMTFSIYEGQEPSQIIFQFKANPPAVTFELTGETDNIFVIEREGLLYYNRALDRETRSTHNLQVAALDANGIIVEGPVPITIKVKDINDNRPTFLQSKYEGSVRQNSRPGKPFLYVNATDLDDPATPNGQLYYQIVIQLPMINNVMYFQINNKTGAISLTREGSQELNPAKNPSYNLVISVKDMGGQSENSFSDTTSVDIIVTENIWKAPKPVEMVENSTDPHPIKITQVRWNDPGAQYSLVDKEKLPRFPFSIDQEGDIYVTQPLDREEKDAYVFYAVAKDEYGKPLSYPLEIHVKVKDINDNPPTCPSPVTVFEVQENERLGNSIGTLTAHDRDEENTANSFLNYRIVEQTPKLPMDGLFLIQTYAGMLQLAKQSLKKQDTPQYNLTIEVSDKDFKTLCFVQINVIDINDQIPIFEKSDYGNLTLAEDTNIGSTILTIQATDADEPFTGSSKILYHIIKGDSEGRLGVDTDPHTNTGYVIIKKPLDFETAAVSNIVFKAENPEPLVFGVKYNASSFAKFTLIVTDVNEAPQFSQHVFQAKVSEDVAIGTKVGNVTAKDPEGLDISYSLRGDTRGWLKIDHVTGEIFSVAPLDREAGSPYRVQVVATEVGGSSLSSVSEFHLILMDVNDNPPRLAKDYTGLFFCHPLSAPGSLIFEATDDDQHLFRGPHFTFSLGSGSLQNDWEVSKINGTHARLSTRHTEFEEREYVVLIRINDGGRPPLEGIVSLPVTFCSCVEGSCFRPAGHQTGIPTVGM
Nature of the assay: SPR (Biacore 8K), antibody captured on Protein A chip, hCDH17-his injected. Background: In SPR one partner is held on a chip, and binding of the other changes the refractive index at the surface.

The target of assay [3] is T3, human CDH17, full length, expressed on cells (HEK293-hCDH17); AsPC-1, HCT-8, AGS, LoVo, KATO III, HT-29 tumor … (human, UniProt Q12864 23-832).
T3 construct: also called human CDH17 expressed on tumor cells
T3 sequence: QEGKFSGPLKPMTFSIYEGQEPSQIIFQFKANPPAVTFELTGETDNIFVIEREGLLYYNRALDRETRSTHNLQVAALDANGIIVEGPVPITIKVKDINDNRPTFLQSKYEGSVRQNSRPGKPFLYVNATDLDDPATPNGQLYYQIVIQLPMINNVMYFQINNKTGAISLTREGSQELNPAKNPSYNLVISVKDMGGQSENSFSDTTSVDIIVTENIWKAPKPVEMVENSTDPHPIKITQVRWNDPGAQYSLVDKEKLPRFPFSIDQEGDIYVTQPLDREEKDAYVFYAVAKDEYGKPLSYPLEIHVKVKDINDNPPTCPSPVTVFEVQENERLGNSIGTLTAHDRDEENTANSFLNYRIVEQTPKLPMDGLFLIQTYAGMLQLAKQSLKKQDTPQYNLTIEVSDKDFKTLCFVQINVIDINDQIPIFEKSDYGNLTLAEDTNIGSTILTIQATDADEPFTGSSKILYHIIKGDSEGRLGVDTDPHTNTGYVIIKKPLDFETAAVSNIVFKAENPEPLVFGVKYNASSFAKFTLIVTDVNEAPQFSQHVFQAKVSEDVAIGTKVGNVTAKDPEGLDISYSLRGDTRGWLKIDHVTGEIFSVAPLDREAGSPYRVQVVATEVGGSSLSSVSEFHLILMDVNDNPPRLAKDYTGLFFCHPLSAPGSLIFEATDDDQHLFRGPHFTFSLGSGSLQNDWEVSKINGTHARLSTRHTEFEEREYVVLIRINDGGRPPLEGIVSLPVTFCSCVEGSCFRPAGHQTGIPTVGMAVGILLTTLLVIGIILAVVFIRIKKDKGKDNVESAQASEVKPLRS
Nature of the assay: flow cytometry, HEK293-hCDH17 cells. (A flow cytometer gives signals particle by particle.)

Assay [4] addresses T2, hCDH17-his (full length extracellular …). The assay can be described thus: SPR (Biacore 8K), two doses, antibody captured on Protein A chip, hCDH17-his at 25 nM and 100 nM.

B1: 61C7F12 chimeric mAb (antibody, V domains shown)
VH: EVQLVESGGGLVKPGGSLKLSCAASGFTFSSYAMSWVRQTPEKRLEWVATINIGGSYTYYPDSVKGRFTISRDNAKNTLYLQMSSLRSEDTAMYYCARQEGRYWYFDVWGAGTTVTVSS
VL: QIVLTQSPAIMSASLGERVTMTCTASSSVSSSYLHWYQQKPGSSPKLWIYSTSNLASGVPARFSGSGSGTSYSLTISSMEAEDAATYYCHQFHRSPYTFGGGTKLEIK
notes: Mouse variable regions fused to human IgG1 constant region
As to B1, the binding result was “no binding (tested: titrated from 100 nM)” in assay [1], “binds” in assay [2] and “binds” in assay [3].

B2: 20C3E8 chimeric mAb (antibody, V domains shown)
VH: QVQLQQSGAELARPGASVKLSCKASGYTFTSYGISWVKQRTGQGLEWIGEIYPRSGNTYYNEKFKGKATLTADKSSSTAYMELRSLTSEDSAVYFCSRLDYGTSPFDYWGQGTTLTVSS
VL: NIVMTQSPKSMSMSVGERVTLSCKASENVGTFVSWYQHKPEQSPKLLIYGASNRYTGVPDRFTGSGSATDFTLTISSVQAEDLADYHCGQSYSYPYTFGGGTKLEIK
notes: as for B1
As for B2, the binding result in assay [1] is given as “no binding (tested: titrated from 100 nM)”; in assay [2] it was “binds”; in assay [3] it was “binds”.

B3: 29H8D3 chimeric mAb (antibody, V domains shown)
VH: QVQLQQSDAELVKPGASVKISCKVSGYTFTDHTIHWMKQRPEQGLEWIGYIYPRDGYTKYNEKFKDKATLTADKSSSTAYIQLNTLTSEDSAVYFCARFYYGYWYFDVWGTGTTVTVSS
VL: DIVMTQAAPSVPVTPGESVSISCRSSKSLLRSNGNTYLYWFLQRPGQSPQVLIYRMSNLASGVPDRFSGSGSGTAFTLRISRVEAEDVGVYYCMQHLEYPFTFGAGTKLELK
notes: as for B1
As to B3, the binding result in assay [1] is “no binding (tested: titrated from 100 nM)”.

B4: 29H8D3-z12p13 (antibody, V domains shown)
VH: QVQLVQSGAEVKKPGASVKVSCKASGYTFTDHTIHWMRQRPGQGLEWIGYIYPRDGYTKYNEKFKDRATLTADTSTSTAYMELRSLRSDDTAVYYCARFYYGYWYFDVWGQGTTVTVSS
VL: DIVMTQSPLSLPVTPGEPASISCRSSKSLLRSNGNTYLYWFLQKPGQSPQVLIYRMSNLASGVPDRFSGSGSGTDFTLKISRVEAEDVGVYYCSQHLEYPFTFGQGTKLEIK
notes: PTM-removed variant of 29H8D3-z12; VH is that of 29H8D3-z12
Take B4: the binding result in assay [4] is “binds”.

B5: 29H8D3-z12p21 (antibody, V domains shown)
VH: QVQLVQSGAEVKKPGASVKVSCKASGYTFTDHTIHWMRQRPGQGLEWIGYIYPRDGYTKYNEKFKDRATLTADTSTSTAYMELRSLRSDDTAVYYCARFYYGYWYFDVWGQGTTVTVSS
VL: DIVMTQSPLSLPVTPGEPASISCRSSKSLLRSNGNTYLYWFLQKPGQSPQVLIYRMSNLASGVPDRFSGSGSGTDFTLKISRVEAEDVGVYYCIQHLEYPFTFGQGTKLEIK
notes: as for B4
For the molecule B5, the binding result in assay [4] is recorded as “binds”.

B6: 29H8D3-z12p17 (antibody, V domains shown)
VH: QVQLVQSGAEVKKPGASVKVSCKASGYTFTDHTIHWMRQRPGQGLEWIGYIYPRDGYTKYNEKFKDRATLTADTSTSTAYMELRSLRSDDTAVYYCARFYYGYWYFDVWGQGTTVTVSS
VL: DIVMTQSPLSLPVTPGEPASISCRSSKSLLRSNGNTYLYWFLQKPGQSPQVLIYRMSNLASGVPDRFSGSGSGTDFTLKISRVEAEDVGVYYCGQHLEYPFTFGQGTKLEIK
notes: as for B4
B6: the binding result in assay [4] is “binds”.

B7: 29H8D3-z12p14 (antibody, V domains shown)
VH: QVQLVQSGAEVKKPGASVKVSCKASGYTFTDHTIHWMRQRPGQGLEWIGYIYPRDGYTKYNEKFKDRATLTADTSTSTAYMELRSLRSDDTAVYYCARFYYGYWYFDVWGQGTTVTVSS
VL: DIVMTQSPLSLPVTPGEPASISCRSSKSLLRSNGNTYLYWFLQKPGQSPQVLIYRMSNLASGVPDRFSGSGSGTDFTLKISRVEAEDVGVYYCTQHLEYPFTFGQGTKLEIK
notes: as for B4
For B7, in assay [4], the binding result is “binds”.

B8: 29H8D3-z12p15 (antibody, V domains shown)
VH: QVQLVQSGAEVKKPGASVKVSCKASGYTFTDHTIHWMRQRPGQGLEWIGYIYPRDGYTKYNEKFKDRATLTADTSTSTAYMELRSLRSDDTAVYYCARFYYGYWYFDVWGQGTTVTVSS
VL: DIVMTQSPLSLPVTPGEPASISCRSSKSLLRSNGNTYLYWFLQKPGQSPQVLIYRMSNLASGVPDRFSGSGSGTDFTLKISRVEAEDVGVYYCNQHLEYPFTFGQGTKLEIK
notes: as for B4
For the molecule B8, the binding result in assay [4] was “binds”.

B9: 29H8D3-z12p16 (antibody, V domains shown)
VH: QVQLVQSGAEVKKPGASVKVSCKASGYTFTDHTIHWMRQRPGQGLEWIGYIYPRDGYTKYNEKFKDRATLTADTSTSTAYMELRSLRSDDTAVYYCARFYYGYWYFDVWGQGTTVTVSS
VL: DIVMTQSPLSLPVTPGEPASISCRSSKSLLRSNGNTYLYWFLQKPGQSPQVLIYRMSNLASGVPDRFSGSGSGTDFTLKISRVEAEDVGVYYCQQHLEYPFTFGQGTKLEIK
notes: as for B4
For B9, the binding result in assay [4] is reported as “binds”.

B10: 67A11B11 chimeric mAb (antibody, V domains shown)
VH: EIQLQQSGPELVKPGASVKVSCKASGYAFTTYNMYWVKQSHGQSLEWIGYIDPYNGVTIYNQKFKGTATLTVDKSSSTAYMHLNSLSSEDSAVYYCTITAATLDAMDYWGQGTSVTVSS
VL: DIVMTQSHKFMSTSVGDRVSITCKASQNVATAVAWYQQKPGQSPKVLIYWTSTRHNGVPDRFTGSGSGTDFTLTISNVQSEDLADYFCQQYNSHPLTFGAGTRLELK
notes: as for B1
Take B10: the binding result in assay [1] is recorded as “no binding (tested: titrated from 100 nM)”; in assay [2] it was “binds”; in assay [3], “binds”.

B11: 69E3H11 chimeric mAb (antibody, V domains shown)
VH: QVQLQQPGAELVKPGASVKLSCKASGYTFTTYWMHWVKQRPGQGLEWIGEIDPSDSYANYNQKFKGKATLTVDKSSSTAYMQLSSLTSEDSAVYYCALYYGYGDWGQGTTLTVSS
VL: EIVLTQSPTTMAASPGEKIIITCSVSSSISSIHLHWYQQKPGFSPKLLIYRTSNLASGVPTRFSGSGSGTSYSLTIGTMEAEDVATYYCQQGSNLPLTFGAGTRLELK
notes: as for B1
Regarding B11, the binding result in assay [1] is listed as “no binding (tested: titrated from 100 nM)”; in assay [2], “binds”; in assay [3], “binds”.

The values above are taken from patent EP4806514A2 (Lepu Biopharma Co., Ltd., dated 2025).
